Experimental data reported in paper PMC9929448, “Structural analysis of the interaction between human cytokine BMP-2 and the antagonist Noggin reveals molecular details of cell chondrogenesis inhibition” (The Journal of Biological Chemistry, 2023).

Target: the molecule itself
Experiment: intact protein mass determination (UHPLC-HRMS); reverse-phase C4 column, water/acetonitrile with 0.1% formic acid, electrospray, QTof; covalent (disulphide) dimer

B1: Noggin (residues 28-232) (natural protein)
chain: MQHYLHIRPAPSDNLPLVDLIEHPDPIFDPKEKDLNETLLRSLLGGHYDPGFMATSPPEDRPGGGGGAAGGAEDLAELDQLLRQRPSGAMPSEIKGLEFSEGLAQGKKQRLSKKLRRKLQMWLWSQTFCPVLYAWNDLGSRFWPRYVKVGSCFSKRSCSVPEGMVCKPSKSVHLTVLRWRCQRRGGQRCGWIPIQYPIISECKCSC
modifications: biotin (biotinylated Noggin in the BLI experiments); methionine oxidation, mainly on the N-terminal methionine, in part of the sample
notes: Noggin, residues 28-232 of UniProt Q13253; Disulphide-linked homodimer; No tag (pET-17(b)); for the crystal, SEC-MALS and cell assays no biotinylation is mentioned; also called antagonist Noggin; recombinant Noggin
- stoichiometry N: 2
